3 substances from patent US20020146777A1, “Canine parathyroid hormone 1 receptor” (priority 2000, published 2002) can be followed below.

“Also recorded” adds a separate entry of the source.

Assay [1] deals with T1, canine PTH1 receptor (Canis lupus familiaris, UniProt Q9TU31).
T1 construct: A 1868 bp DNA fragment containing the complete coding region of canine PTH1 was generated by PCR; expressed in transfected cells; host or cells: CHO-K1 cells, transient transfection with canine PTH1-pCR3.1
T1 sequence (Q9TU31 29-595): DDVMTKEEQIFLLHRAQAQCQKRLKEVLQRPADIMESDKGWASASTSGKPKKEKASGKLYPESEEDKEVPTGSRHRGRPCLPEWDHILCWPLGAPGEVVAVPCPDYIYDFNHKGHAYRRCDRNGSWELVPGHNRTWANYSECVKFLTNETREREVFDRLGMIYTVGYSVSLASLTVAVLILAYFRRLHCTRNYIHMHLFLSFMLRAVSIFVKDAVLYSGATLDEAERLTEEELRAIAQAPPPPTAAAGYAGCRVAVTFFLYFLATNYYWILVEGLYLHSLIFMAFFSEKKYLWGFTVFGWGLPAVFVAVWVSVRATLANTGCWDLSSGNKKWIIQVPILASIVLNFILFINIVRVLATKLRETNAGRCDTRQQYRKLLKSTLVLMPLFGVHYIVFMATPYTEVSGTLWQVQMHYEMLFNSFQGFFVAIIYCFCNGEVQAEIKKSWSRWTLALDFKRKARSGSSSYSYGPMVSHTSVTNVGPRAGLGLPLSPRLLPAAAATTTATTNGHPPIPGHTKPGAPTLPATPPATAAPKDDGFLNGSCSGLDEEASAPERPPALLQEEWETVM
In words: Intracellular cAMP accumulation in CHO cells transiently transfected with canine PTH1. In kind it is cell-based. Conditions: peptide 10^-7 M, 15 minutes at 37° C. The protocol: (§1) CHO-K1 cells were purchased from ATCC (Rockville, Md.) and maintained in Dulbecco's modified Eagle's medium/F12 (DMEM/F12, Life Technologies, Gaithersburg, Md.) supplemented with 10% fetal calf serum (FCS, Gemini Bio-Products, Calabasas, Calif.). CHO cells were plated in 12 and 24-well plates (Becton Dickinson, Franklin Lakes, N.J.) at 1.6×10^6 cells/plate in DMEM/F12 supplemented with 10% FCS. 24 hours later, each plate of cells was transfected with 10 μg of the canine PTH1-pCR3.1 expression plasmid using Lipofectamine reagent (Life Technologies). Total volume of DNA-lipofectamine mix was 500 μl/well and 250 μl/well in the 12- and 24-well plates, respectively. After 5 hours, an equal volume of media supplemented with 20% FCS was added to each well and after 24 hours, the media was replaced with growth media. The cells were then allowed to grow for an additional 24 hours, at which time the cells in the 24-well plates were used in the PTH binding assay and the cells in the 12-well plates were used to determine receptor activation by measuring cAMP.
(§2) ^125I-human PTH 1-34 amide (2000 Ci/mmol) was purchased from Amersham (Arlington Heights, Ill.). Human PTH 1-34 and human PTHrP 1-34 were purchased from Peninsula Laboratories (San Carlos, Calif.). Canine PTH (1-34) and PTHrP (1-34) (Rosol, 1995) were custom synthesized by Princeton BioMolecules (Columbus, Ohio). Human aldosterone secretion inhibitory factor (1-35), used as a similarly sized non-specific peptide, was purchased from Sigma.
To measure stimulation of cAMP production, cells transiently transfected with canine PTH1 were rinsed once with test medium (serum-free DMEM/F12 containing 0.2 mM 3-isobutyl-1-methylxanthine (IBMX; Calbiochem, La Jolla, Calif.)), then preincubated with 1 ml/well test medium for 10 minutes at 37° C. This medium was removed and cells were incubated with test medium containing the indicated peptides (10^−7 M) for 15 minutes at 37° C. […] Upon thawing cAMP was measured using a commercially available ELISA kit (Cayman Chemical, Ann Arbor, Mich.).

Assay [2] has as its target T1, canine PTH1 receptor. In words: Whole cell 125I-human PTH (1-34) competition binding to canine PTH1 transiently transfected CHO cells. As to conditions: canine PTH1/pCR3.1 transiently transfected CHO cells, 2 hours on ice. Here is the method: as §1, §2
Canine PTH1 transiently transfected CHO cells in 24-well plates were subjected to whole cell human ^125I-PTH (1-34) competition binding. Culture media was removed, cell monolayers washed once each with ice-cold Dulbecco's phosphate buffered saline (Life Technologies) and ice-cold assay buffer (AB; 50 mM Tris-HCl, 100 mM NaCl, 2 mM CaCl2, 5 mM KCl, 0.5% heat inactivated FCS (Life Technologies), and 5% heat-inactivated horse serum (Life Technologies), pH 7.7). Subsequent to adding 225 μl of AB to each well, 25 μl of 10x peptide (10^−4- […]) in AB containing 800 cpms/μl of ^125I-human PTH (1-34) was added to each of three wells. Plates were incubated for 2 hours on ice, binding mix removed by aspiration, washed 2x with ice-cold assay AB, cells solubilized in 1% SDS and total bound counts determined. Percent bound ^125I-PTH (1-34) was calculated using the following equation: [formula]

Consider “human PTH (1-34): Human parathyroid hormone fragment 1-34, purchased from Peninsula Laboratories”, for which the “intracellular cAMP accumulation (PTH1 activation)” value (from here on “intracellular cAMP accumulation”) in assay [1] is “increase in intracellular cAMP”. The “binding to canine PTH1 (displacement of 125I-hPTH (1-34))” value (“binding to canine PTH1” below) in assay [2] is on record as “specific displacement; also recorded: high affinity binding”; in assay [2] (listed as Human PTH), “specific binding”.

As for “canine PTH (1-34): Canine parathyroid hormone fragment 1-34, custom synthesized by Princeton BioMolecules (SVSEIQFMHNLGKHLSSMERVEWLRKKLQDVHNF)”, the “intracellular cAMP accumulation” value in assay [1] is recorded as “increase in intracellular cAMP”. Also, the “binding to canine PTH1” value in assay [2] is “specific displacement; also recorded: high affinity binding”; in assay [2] (listed as canine PTH) it was “specific binding”.

In the case of “canine/human PTHrP (1-34): Canine/human parathyroid hormone related peptide fragment 1-34”, the “intracellular cAMP accumulation” value in assay [1] is reported as “increase in intracellular cAMP”. For the same substance, the “binding to canine PTH1” value was “high affinity binding” in assay [2], “specific binding” in assay [2] (listed as canine PTHrP) and “specific displacement” in assay [2] (listed as canine/human parathyroid hormone related peptide (PTHrP) (1-34)).
